Measured values from article PMC6221367, “A dual regulatory circuit consisting of S-adenosylmethionine decarboxylase protein and its reaction product controls expression of the paralogous activator prozyme in Trypanosoma brucei” (PLoS Pathogens, 2018).

Key:
[1] = substrate: CSCC[C@H](N)C(=O)O; assay: coupled spectroscopic assay of pyrophosphate release (A340); type: biochemical, Trypanosoma brucei; conditions: 150 nM enzyme, co-substrate ATP, 5 mM MgSO4 and 100 mM KCl in 50 mM HEPES assay buffer, pH 8.0, 37 °C, parenthesis = 95% CI
Text: (§1) coupled spectroscopic assay of pyrophosphate release (A340) on TbAdoMetSyn

[2] = substrate: Nc1ncnc2c1ncn2[C@@H]1O[C@H](COP(=O)(O)OP(=O)(O)OP(=O)(O)O)[C@@H](O)[C@H]1O; assay: as above; type: biochemical, Trypanosoma brucei; conditions: 150 nM enzyme, co-substrate methionine, 5 mM MgSO4 and 100 mM KCl in 50 mM HEPES assay buffer, pH 8.0, 37 °C, parenthesis = 95% CI
Text: as §1

B1: TbAdoMetSyn (Trypanosoma brucei brucei TREU927) (protein)
chain: MSVRQIFFTSEHVSEGHPDKLCDQVSDAVLDACLEQDPLSKVACETCSKTGMVLVFGEITTKAVIDYQKVVRDTVKEIGFDNTEKGLDYRSLNLLVAVEQQSPDIYQGLGDFGGENLGAGDQGMMFGYATNETETLMPLSYELARGLAMTYSELRRNGGLPWARPDAKTQVTVQYEYDTRGGKQLLTPKRVAVILVSAQLDDGVSNETIREDLVKKVISTTIPAKFLDENTKYHLNPSGRFVIGGPHGDAGLTGRKIIVDTYGGWGAHGGGAFSGKDPSKVDRSAAYAARWIAKSLVAAGLADRCLVQLSYAIGVAEPLNIHVDTYGTGKRDDEYILGIVQKNFRLRPYDIIKELDLRRPIYRQTACFGHFGRVDTNGKGGFTWEVPKTLEGLSDVQ
notes: E. coli BL21(DE3); His6-tag removed by TEV protease
Question: With B1 as the protein, how does the Km [1] read?
Answer: 0.031 (0.025–0.039) mM

Question: What about the kcat [1] of the same protein?
Answer: 0.19 s⁻¹

Question: What about the Km [2] of the same protein?
Answer: 0.31 (0.24–0.40) mM

Question: And the kcat [2]?
Answer: 0.21 s⁻¹
